From article PMC8115599, “Mechanism of MRX inhibition by Rif2 at telomeres” (Nature Communications, 2021)

Biological target: T1, GST-Rif2_(1-60) (S. cerevisiae, UniProt Q06208 1-60)
T1 construct: Rif2, S. cerevisiae, residues 1-60; also called GST-ScRif2_(1-60); Rif2 BAT; source: E. coli BL21 (DE3), purified (GSH Sepharose, Hitrap Heparine)
T1 sequence (looked up): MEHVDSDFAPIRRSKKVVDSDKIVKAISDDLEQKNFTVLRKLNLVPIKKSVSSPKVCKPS
Experiment: pull-down; GST-Rif2_(1-60), its F8A mutant or GST (10 µg) immobilised on Glutathione Sepharose 4B; Rad50∆CC (30 µg) added in 100 µL 50 mM Tris HCl pH 8, 150 mM NaCl, 1 mM DTT, 0.5 mM EDTA, 10% glycerol, 2 mM MgCl2, benzonase; 120 min at 4 °C; glutathione elution, SDS-PAGE, silver staining
Details: both partners purified

B1: Rad50∆CC, purified (His-SUMO tag removed) (domain or fragment, S. cerevisiae)
chain: MSAIYKLSIQGIRSFDSNDRETIEFGKPLTLIVGMNGSGKTTIIECLKYATTGDLPPNSKGGVFIHDPKITGEKDIRAQVKLAFTSANGLNMIVTRNIQLLMKKTTTTFKTLEGQLVAINNSGDRSTLSTRSLELDAQVPLYLGVPKAILEYVIFCHQEDSLWPLSEPSNLKKKFDEIFQAMKFTKALDKILCYDDIDVYSKALDSAIMKYHGLKMQDINRIIDELWKRTYSGTDIDTIKIRSDEVSSTVKGKSYNYRVVMYKQDVELDMRGRCSAGQKVLASIIIRLALSETFGANCGVIALDEPTTNLDEENIESLAKSLHNIINMRRHQKNFQLIVITHDEKFLGHMNAAAFTDHFFKVKRDDRQKSQIEWVDINRVTY
notes: Rad50, S. cerevisiae, N-terminal Head domain, residues 1-189; residues joining the two Head domains in the Rad50∆CC allele; Rad50, S. cerevisiae, C-terminal Head domain, residues 1125-1312; also called Rad50 ATPase Head; Rad50 Head domains; source: E. coli BL21 (DE3), purified (NiNTA, PD10; tag cleaved with His-SUMO-Protease); not shown: His6-SUMO, N-terminal, cleaved
B1: binds.
